This assay has as its target BDC2.5 T cell receptor (transgenic TCR alpha/beta of BDC2.5 TCR Tg mice) (mouse). Kind of assay: cell-based or functional assay.

Turning to “p31-I-A^g7 multimer (recombinant MHC class II I-A^g7 presenting the BDC2.5 TCR mimotope peptide 1040-31) (peptide-MHC)”, the fold expansion of antigen-specific cells during the 10 day culture (lowest seeding, 0.001%) turned out to be 5000 fold.

The record behind these values is patent publication US20100310588A1.
